Assay results as given in IntAct's records for PubMed 16698797.

B1: Protein O-mannosyl-transferase 1 (Homo sapiens), Q9Y6A1 (parent)
chain: MWGFLKRPVVVTADINLSLVALTGMGLLSRLWRLTYPRAVVFDEVYYGQYISFYMKQIFFLDDSGPPFGHMVLALGGYLGGFDGNFLWNRIGAEYSSNVPVWSLRLLPALAGALSVPMAYQIVLELHFSHCAAMGAALLMLIENALITQSRLMLLESVLIFFNLLAVLSYLKFFNCQKHSPFSLSWWFWLTLTGVACSCAVGIKYMGVFTYVLVLGVAAVHAWHLLGDQTLSNVGADVQCCMRPACMGQMQMSQGVCVFCHLLARAVALLVIPVVLYLLFFYVHLILVFRSGPHDQIMSSAFQASLEGGLARITQGQPLEVAFGSQVTLRNVFGKPVPCWLHSHQDTYPMIYENGRGSSHQQQVTCYPFKDVNNWWIVKDPRRHQLVVSSPPRPVRHGDMVQLVHGMTTRSLNTHDVAAPLSPHSQEVSCYIDYNISMPAQNLWRLEIVNRGSDTDVWKTILSEVRFVHVNTSAVLKLSGAHLPDWGYRQLEIVGEKLSRGYHGSTVWNVEEHRYGASQEQRERERELHSPAQVDVSRNLSFMARFSELQWRMLALRSDDSEHKYSSSPLEWVTLDTNIAYWLHPRTSAQIHLLGNIVIWVSGSLALAIYALLSLWYLLRRRRNVHDLPQDAWLRWVLAGALCAGGWAVNYLPFFLMEKTLFLYHYLPALTFQILLLPVVLQHISDHLCRSQLQRSIFSALVVAWYSSACHVSNTLRPLTYGDKSLSPHELKALRWKDSWDILIRKH
partner: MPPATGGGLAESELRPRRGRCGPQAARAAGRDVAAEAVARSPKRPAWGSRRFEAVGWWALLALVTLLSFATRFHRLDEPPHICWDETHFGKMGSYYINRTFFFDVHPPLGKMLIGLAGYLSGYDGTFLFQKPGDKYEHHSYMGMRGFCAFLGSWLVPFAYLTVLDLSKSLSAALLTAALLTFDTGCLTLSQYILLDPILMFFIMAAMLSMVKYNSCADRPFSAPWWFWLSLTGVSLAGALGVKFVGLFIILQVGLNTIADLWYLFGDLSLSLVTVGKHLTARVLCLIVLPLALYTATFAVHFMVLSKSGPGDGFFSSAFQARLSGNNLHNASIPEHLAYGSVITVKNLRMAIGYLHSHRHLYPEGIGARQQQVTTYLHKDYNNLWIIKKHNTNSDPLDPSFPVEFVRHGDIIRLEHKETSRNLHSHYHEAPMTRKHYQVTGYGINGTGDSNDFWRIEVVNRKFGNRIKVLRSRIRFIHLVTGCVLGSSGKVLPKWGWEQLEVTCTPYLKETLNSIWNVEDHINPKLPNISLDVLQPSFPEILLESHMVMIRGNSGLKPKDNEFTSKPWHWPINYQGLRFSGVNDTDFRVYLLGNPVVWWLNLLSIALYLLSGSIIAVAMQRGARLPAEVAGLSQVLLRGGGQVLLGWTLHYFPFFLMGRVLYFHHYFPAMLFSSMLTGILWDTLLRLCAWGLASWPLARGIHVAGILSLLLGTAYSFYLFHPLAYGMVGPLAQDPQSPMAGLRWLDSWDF

Variants of: B1
Conditions: with pomt2_human POMT2, Q9UKY4

| Variant | effect of a mutation on the interaction |
| --- | --- |
| G65R | with no effect |
| G76R | with no effect |
| A200P | with no effect |

More lines, now with the values ahead:

| effect of a mutation on the interaction | Variant |
| --- | --- |
| with no effect | W582C |
| with no effect | V428D |
